B1: IQUB (parent)
chain: CRNCINLQNEAQKRESFLKYKCLL

Variants of: B1
Experiment: protein stability index of a GFP-peptide fusion (GPS, HEK-293T) (PSI 1-6); higher = more stable
Details: c terminus: a fixed tail appended
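Note: lentivirally expressed fusions sorted by FACS into six bins by GFP to DsRed ratio, PSI derived from sequencing read proportions per bin multiplied by bin number.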

Protein stability index: each site, then its substitutions
S16: F 2.23, V 2.4, L 1.99, R 2.62, T 1.59, K 1.88, H 2.25, N 1.84, D 2.11, I 1.59, C 1.53, Q 2.06, A 2.05, W 1.69, P 2.2, G 2.93, E 2.15
L7: W 2.57, V 2.01, I 1.79, M 2.39, Q 1.75, K 1.95, C 2.13, F 1.68, S 2.29, E 2.27, P 2.21, A 1.75, H 1.55, G 2.36, D 2.31, Y 1.86, T 1.67, R 1.65, N 2.26
K13: M 1.8, L 2.79, I 2.01, T 2.04, P 2.02, H 2.74, A 1.54, R 1.74, G 2.04, C 1.17, Q 1.75, N 1.85, W 2.06, F 2.35, Y 1.73, V 1.78, D 1.58, E 1.29
C22: V 1.73, E 2.69, P 2.25, D 2.46, G 1.42, T 1.41, H 2.18, S 1.65, A 1.58, I 2.13, W 2.01, K 1.87, N 1.49, M 1.79, R 1.3, Q 2.33, Y 1.84, L 1.76
N6: H 1.97, W 1.9, D 1.47, M 1.46, Y 1.48, I 2.59, G 1.91, R 2.09, S 2.37, A 1.77, K 1.76, C 1.76, L 2.27, P 1.7, E 1.7, Q 2.25, V 1.88, F 2.2, T 1.72
L18: V 1.88, K 2.15, R 1.65, M 2.72, P 2.11, T 1.88, Y 1.38, G 2.9, D 1.63, W 1.96, A 1.57, I 1.51, H 2.23, F 2.79, S 1.39, C 2.6, Q 1.85, E 2.25, N 2.27
R14: T 1.84, W 1.86, C 1.64, M 1.39, D 2.66, A 1.02, E 1.36, I 2.86, G 1.67, F 2.34, H 1.83, P 2.35, K 2.02, Y 2.43, V 2.36, S 2.56, Q 1.89, N 2.26
A11: N 1.56, R 1.19, H 1.66, E 2.19, M 2.25, Q 1.34, L 1.98, C 1.59, T 2.8, P 1.71, I 1.82, D 2.08, V 1.57, K 1.78, Y 1.69, S 2.06
K21: S 1.94, Q 2.28, M 1.76, R 2.53, H 2.47, D 2.06, E 1.75, F 1.74, I 2.28, W 1.78, P 1.74, N 1.47, Y 1.51, A 1.16, C 1.77, G 2.7, L 1.38, V 3.66, T 1.58
F17: Q 1.5, W 1.58, H 1.68, E 2.6, I 1.79, R 2.65, A 2.02, Y 1.59, C 2.13, K 2.33, V 2.25, D 2.45, N 2.22, M 1.58, S 2.08, T 2.74, P 2.33, L 1.77, G 2.84
Y20: R 1.83, W 2.46, H 1.69, E 2.17, G 3.06, D 2.11, F 1.66, C 3.65, K 2.46, P 1.89, S 1.5, M 2.66, T 2.14, L 2.14, Q 2.96, N 2.96, A 2.34
Q12: S 1.31, C 1.81, F 2.23, H 1.75, N 1.69, I 2.58, V 2.12, R 1.96, A 2.34, T 1.71, M 1.5, W 2.31, Y 2.28, D 1.87, K 2.06, E 2.29, P 2.83, G 1.75
N9: T 1.33, K 1.98, M 1.39, L 2.12, W 2.72, G 2.15, S 1.95, C 1.57, D 2.28, I 2.01, Q 1.49, P 2.33, R 2.42, E 1.42, H 1.53, Y 2.32, A 1.84, V 1.53
L23: Q 1.87, D 2.7, I 2.25, V 3.23, A 1.5, F 2.53, Y 2.05, E 1.75, N 2.12, G 2.03, H 1.6, M 1.77, T 1.97, R 2.17, S 2.18, W 2.21, P 2.69, C 2.98
E15: M 3.62, L 2.77, D 2.13, R 1.08, N 2.51, Y 2.04, S 2.3, C 1.47, A 2.85, G 2.37, K 1.92, P 2.05, W 1.62, T 2.24, H 2.75, Q 2.01, F 2.57
K19: C 3.27, A 1.46, Q 1.85, D 1.3, P 1.46, H 1.68, M 2.28, G 2.2, F 2.54, I 2.19, L 2.69, R 1.56, W 1.01, N 1.63, E 1.74, T 2.23
Q8: A 1.63, V 2.12, N 1.87, I 1.72, E 2.53, C 2.9, D 1.13, T 1.61, F 1.59, G 1.57, L 3.13, K 1.38, R 2.17, W 2.46, S 2.82, P 1.68, H 2.08
E10: Q 2.23, L 1.65, N 1.94, A 1.52, G 1.68, M 2.14, T 1.71, S 1.9, D 1.63, H 2.56, P 1.37, F 2.7, R 1.7, I 1.35, C 1.71, K 2.09
I5: S 1.89, Y 2.21, K 1.45, H 1.8, R 1.88, W 1.4, N 2.33, L 2.16, G 1.83, M 1.8, P 2.04, E 2.53, V 1.61, T 1.71, Q 1.97
